From patent US20260232732A1 (FUNDACI INSTITUT DE RECERCA CONTRA LA LEUC MIA JOSEP …, published 2026)
Where no end group is shown, it is not given here. The star is where a group is joined. Biotin = O=C1N[C@H]2[C@H](CS[C@H]2CCCCC(=O)*)N1

T1: naked peptide MTPTDFTSPI (human)
T1 peptide: MTPTDFTSPI

T2: naked peptide TDFTSPIPNM (human)
T2 peptide: TDFTSPIPNM

T3: naked peptide TSPIPNMADD (human)
T3 peptide: TSPIPNMADD

T4: naked peptide IPNMADDYGS (human)
T4 peptide: IPNMADDYGS

T5: naked peptide MADDYGSEST (human)
T5 peptide: MADDYGSEST

T6: naked peptide DYGSESTSSM (human)
T6 peptide: DYGSESTSSM

T7: naked peptide SESTSSMEDY (human)
T7 peptide: SESTSSMEDY

T8: naked peptide TSSMEDYVNF (human)
T8 peptide: TSSMEDYVNF

T9: naked peptide SSMEDYVNFN (human)
T9 peptide: SSMEDYVNFN

T10: naked peptide SMEDYVNFNF (human)
T10 peptide: SMEDYVNFNF

T11: naked peptide MEDYVNFNFT (human)
T11 peptide: MEDYVNFNFT

T12: naked peptide YVNFNFTDFY (human)
T12 peptide: YVNFNFTDFY

T13: naked peptide FNFTDFYCEK (human)
T13 peptide: FNFTDFYCEK

T14: naked peptide TDFYCEKNNV (human)
T14 peptide: TDFYCEKNNV

T15: naked peptide YCEKNNVRQF (human)
T15 peptide: YCEKNNVRQF

T16: naked peptide KNNVRQFAS (human)
T16 peptide: KNNVRQFAS

T17: biotin-peptide MTPTDFTSPI (human, also: prints MTPTDFTSP, without I10)
T17 peptide: Biotin-MTPTDFTSPI

T18: biotin-peptide TDFTSPIPNM (human)
T18 peptide: Biotin-TDFTSPIPNM

T19: biotin-peptide TSPIPNMADD (human)
T19 peptide: Biotin-TSPIPNMADD

T20: biotin-peptide IPNMADDYGS (human)
T20 peptide: Biotin-IPNMADDYGS

T21: biotin-peptide DYGSESTSSM (human)
T21 peptide: Biotin-DYGSESTSSM

T22: biotin-peptide SESTSSMEDY (human)
T22 peptide: Biotin-SESTSSMEDY

T23: biotin-peptide TSSMEDYVNF (human)
T23 peptide: Biotin-TSSMEDYVNF

T24: biotin-peptide SSMEDYVNFN (human)
T24 peptide: Biotin-SSMEDYVNFN

T25: biotin-peptide SMEDYVNFNF (human)
T25 peptide: Biotin-SMEDYVNFNF

T26: biotin-peptide MEDYVNFNFT (human)
T26 peptide: Biotin-MEDYVNFNFT

T27: biotin-peptide YVNFNFTDFY (human)
T27 peptide: Biotin-YVNFNFTDFY

T28: biotin-peptide TDFYCEKNNV (human)
T28 peptide: Biotin-TDFYCEKNNV

T29: biotin-peptide YCEKNNVRQF (human)
T29 peptide: Biotin-YCEKNNVRQF

T30: biotin-peptide KNNVRQFAS (human)
T30 peptide: Biotin-KNNVRQFAS


Tests used:
naked peptide MTPTDFTSPI = target: T1, naked peptide MTPTDFTSPI; test: ELISA naked peptide; scFv 1 ug/mL; repII
Protocol: (§1) The peptides were synthesized naked or with a N-terminal Biotin modification with a purity of >98%. All four scFvs were verified by ELISA that can be detected with anti-His antibodies. ELISA was performed for scFv-peptide binding validation. Briefly, naked peptides were coated (50 μg/mL) in 0.58M carbonate-bicarbonate buffer pH9.5, 100 μL/well, 4° C. O/N. Then after blocking (3% BSA-PBS, 300 μL/well 37° C. 1.5 h) and washing (PBS+Tween-20 0.05% v/v (0.05% PBST), wells were incubated with each purified scFv antibody at concentration of 1 μg/mL in PBS at 37° C. 1 h. After washing (0.05% PBST), wells were incubated with secondary antibodies (goat anti-His IgG-HRP) in PBS, 37° C., 30 min. After washing, and incubation with TMB substrate, reactions were stopped with 2M HCl and reading was quantified at OD450.
(§2) Then a library of overlapping peptides were designed and constructed separately to produce 16 different peptides, covering full antigen sequence of total 48 aa. Peptide size was 10aa, with 7aa overlapping and ELISA screening of scFv against each peptide was performed in duplicate. Screening was performed using naked peptides in a standard plate or biotinylated peptides using avidin-plates.

naked peptide TDFTSPIPNM = target: T2, naked peptide TDFTSPIPNM; test: ELISA naked peptide; scFv 1 ug/mL; repII
Protocol: as §1, §2

naked peptide TSPIPNMADD = target: T3, naked peptide TSPIPNMADD; test: ELISA naked peptide; scFv 1 ug/mL; repII
Protocol: as §1, §2

naked peptide IPNMADDYGS = target: T4, naked peptide IPNMADDYGS; test: ELISA naked peptide; scFv 1 ug/mL; repII
Protocol: as §1, §2

naked peptide MADDYGSEST = target: T5, naked peptide MADDYGSEST; test: ELISA naked peptide; scFv 1 ug/mL; repII
Protocol: as §1, §2

naked peptide DYGSESTSSM = target: T6, naked peptide DYGSESTSSM; test: ELISA naked peptide; scFv 1 ug/mL; repII
Protocol: as §1, §2

naked peptide SESTSSMEDY = target: T7, naked peptide SESTSSMEDY; test: ELISA naked peptide; scFv 1 ug/mL; repII
Protocol: as §1, §2

naked peptide TSSMEDYVNF = target: T8, naked peptide TSSMEDYVNF; test: ELISA naked peptide; scFv 1 ug/mL; repII
Protocol: as §1, §2

naked peptide SSMEDYVNFN = target: T9, naked peptide SSMEDYVNFN; test: ELISA naked peptide; scFv 1 ug/mL; repII
Protocol: as §1, §2

naked peptide SMEDYVNFNF = target: T10, naked peptide SMEDYVNFNF; test: ELISA naked peptide; scFv 1 ug/mL; repII
Protocol: as §1, §2

naked peptide MEDYVNFNFT = target: T11, naked peptide MEDYVNFNFT; test: ELISA naked peptide; scFv 1 ug/mL; repII
Protocol: as §1, §2

naked peptide YVNFNFTDFY = target: T12, naked peptide YVNFNFTDFY; test: ELISA naked peptide; scFv 1 ug/mL; repII
Protocol: as §1, §2

naked peptide FNFTDFYCEK = target: T13, naked peptide FNFTDFYCEK; test: ELISA naked peptide; scFv 1 ug/mL; repII
Protocol: as §1, §2

naked peptide TDFYCEKNNV = target: T14, naked peptide TDFYCEKNNV; test: ELISA naked peptide; scFv 1 ug/mL; repII
Protocol: as §1, §2

naked peptide YCEKNNVRQF = target: T15, naked peptide YCEKNNVRQF; test: ELISA naked peptide; scFv 1 ug/mL; repII
Protocol: as §1, §2

naked peptide KNNVRQFAS = target: T16, naked peptide KNNVRQFAS; test: ELISA naked peptide; scFv 1 ug/mL; repII
Protocol: as §1, §2

[1] = target: T17, biotin-peptide MTPTDFTSPI; test: ELISA biotin-peptide; scFv 10 ug/mL; repII
Protocol: as §1
(§3) ELISA with biotin-conjugated peptides (5 μg/mL) was performed very similar to described above with minor modifications.

[2] = target: T18, biotin-peptide TDFTSPIPNM; test: ELISA biotin-peptide; scFv 10 ug/mL; repII
Protocol: as §1, §3

[3] = target: T19, biotin-peptide TSPIPNMADD; test: ELISA biotin-peptide; scFv 10 ug/mL; repII
Protocol: as §1, §3

[4] = target: T20, biotin-peptide IPNMADDYGS; test: ELISA biotin-peptide; scFv 10 ug/mL; repII
Protocol: as §1, §3

[5] = target: T21, biotin-peptide DYGSESTSSM; test: ELISA biotin-peptide; scFv 10 ug/mL; repII
Protocol: as §1, §3

[6] = target: T22, biotin-peptide SESTSSMEDY; test: ELISA biotin-peptide; scFv 10 ug/mL; repII
Protocol: as §1, §3

[7] = target: T23, biotin-peptide TSSMEDYVNF; test: ELISA biotin-peptide; scFv 10 ug/mL; repII
Protocol: as §1, §3

[8] = target: T24, biotin-peptide SSMEDYVNFN; test: ELISA biotin-peptide; scFv 10 ug/mL; repII
Protocol: as §1, §3

[9] = target: T25, biotin-peptide SMEDYVNFNF; test: ELISA biotin-peptide; scFv 10 ug/mL; repII
Protocol: as §1, §3

[10] = target: T26, biotin-peptide MEDYVNFNFT; test: ELISA biotin-peptide; scFv 10 ug/mL; repII
Protocol: as §1, §3

[11] = target: T27, biotin-peptide YVNFNFTDFY; test: ELISA biotin-peptide; scFv 10 ug/mL; repII
Protocol: as §1, §3

[12] = target: T28, biotin-peptide TDFYCEKNNV; test: ELISA biotin-peptide; scFv 10 ug/mL; repII
Protocol: as §1, §3

[13] = target: T29, biotin-peptide YCEKNNVRQF; test: ELISA biotin-peptide; scFv 10 ug/mL; repII
Protocol: as §1, §3

biotin-peptide KNNVRQFAS = target: T30, biotin-peptide KNNVRQFAS; test: ELISA biotin-peptide; scFv 10 ug/mL; repII
Protocol: as §1, §3

| OD450 (naked peptide MTPTDFTSPI) [OD] | OD450 (naked peptide TDFTSPIPNM) [OD] | OD450 (naked peptide TSPIPNMADD) [OD] | OD450 (naked peptide IPNMADDYGS) [OD] | OD450 (naked peptide MADDYGSEST) [OD] | OD450 (naked peptide DYGSESTSSM) [OD] | OD450 (naked peptide SESTSSMEDY) [OD] | OD450 (naked peptide TSSMEDYVNF) [OD] | OD450 (naked peptide SSMEDYVNFN) [OD] | OD450 (naked peptide SMEDYVNFNF) [OD] | OD450 (naked peptide MEDYVNFNFT) [OD] | OD450 (naked peptide YVNFNFTDFY) [OD] | OD450 (naked peptide FNFTDFYCEK) [OD] | OD450 (naked peptide TDFYCEKNNV) [OD] | OD450 (naked peptide YCEKNNVRQF) [OD] | OD450 (naked peptide KNNVRQFAS) [OD] | OD450 [1] [OD] | OD450 [2] [OD] | OD450 [3] [OD] | OD450 [4] [OD] | Binder | also measured |
| --- | --- | --- | --- | --- | --- | --- | --- | --- | --- | --- | --- | --- | --- | --- | --- | --- | --- | --- | --- | --- | --- |
| 0.04 | 0.06 | 0.05 | 0.01 | 0.02 | 0.02 | 0.04 | 0.03 | 0.09 | 0.02 | 0.06 | 0.04 | 0.02 | 0.03 | 0.04 | 0.02 | 0.07 | 0.08 | 0.15 | 0.14 | Comparative antibody 1 (Comp-1) scFv, SEQ ID NO: 10 from WO2023/037125 A1, His-tagged (scFv) scFv: QVQLKESGPGLVQPSQTLSLTCTVSGFSVASYDMHWVRLPPGKGLEWMGIIWANGNTHYNSGLKSRLSISRDTSKSQVFLKMNSLQTEDTAIYFCTRGGFAYWGQGTLVTVSSGGGGSGGGGSGGGGSGGGGSDVVMTQTPVSLSVSLGGQVSISCRSSQSLVHNNGNTYLSWYLQKPGQSPQLLIYKVSNRFSGVSDRFSGSGSGTDFTLKISRVEPDDLGVYYCGQGTQYPTFGGGTKLELKHHHHHH | OD450 [5]: 0.11 OD; OD450 [6]: 0.1 OD; OD450 [7]: 0.08 OD; OD450 [8]: 0.13 OD; OD450 [9]: 0.1 OD; OD450 [10]: 0.14 OD; OD450 [11]: 0.09 OD; OD450 [12]: 0.05 OD; OD450 [13]: 0.06 OD; OD450 (biotin-peptide KNNVRQFAS): 0.06 OD |
| 0.04 | 0.04 | 0.02 | 0.02 | 0.03 | 0.02 | 0.03 | 0.03 | 0.99 | 1.48 | 0.86 | 0.02 | 0.03 | 0.03 | 0.03 | 0.03 | 0.09 | 0.09 | 0.06 | 0.1 | CCR9_HUM2 scFv (humanized anti-CCR9 scFv, SEQ ID NO: 17 with C-terminal 6xHis tag) (scFv) scFv: QVQLVQSGAEVKKPGASVKVSCTASGYSFTDYIIYWVKQAHGQSLEWMGYIDPNNYNTRYSQKFQGKVTITVDKSSTSAYMELNSLTSDDTAVYYCARDVYWGQGTTVTVSSGGGGSGGGGSGGGGSGGGGSDVVMTQTPLSLSVTPGQPASISCRSSQSLVHSNGKTYLQWYLQKPGQSPKLLIYKVSNRFSGVPDRFSGSGSGTDFTLKISRVEAEDVGVYFCAQSTHVWTFGGGTKVEIKRAHHHHHH | OD450 [5]: 0.07 OD; OD450 [6]: 0.09 OD; OD450 [7]: 1.92 OD; OD450 [8]: 2.3 OD; OD450 [9]: 2.38 OD; OD450 [10]: 2.32 OD; OD450 [11]: 0.21 OD; OD450 [12]: 0.06 OD; OD450 [13]: 0.06 OD; OD450 (biotin-peptide KNNVRQFAS): 0.09 OD |
